IntAct's records for PubMed 12620186

Target: wipf1_human WIPF1 (UniProt O43516)
Sequence (O43516 whole entry): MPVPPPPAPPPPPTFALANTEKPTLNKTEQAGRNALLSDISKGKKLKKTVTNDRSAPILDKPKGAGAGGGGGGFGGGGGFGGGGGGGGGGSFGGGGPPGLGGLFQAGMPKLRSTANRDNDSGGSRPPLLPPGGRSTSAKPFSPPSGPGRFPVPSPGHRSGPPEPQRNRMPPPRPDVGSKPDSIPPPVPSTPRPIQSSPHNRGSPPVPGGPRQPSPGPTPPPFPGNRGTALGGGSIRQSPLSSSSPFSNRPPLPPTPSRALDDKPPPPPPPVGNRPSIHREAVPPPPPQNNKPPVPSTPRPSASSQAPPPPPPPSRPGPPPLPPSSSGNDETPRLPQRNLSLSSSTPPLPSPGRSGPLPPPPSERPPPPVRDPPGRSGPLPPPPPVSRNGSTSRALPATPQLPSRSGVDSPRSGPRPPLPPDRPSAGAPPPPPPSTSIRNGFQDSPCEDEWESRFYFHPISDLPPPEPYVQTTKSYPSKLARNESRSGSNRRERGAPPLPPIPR

Sequence of Src substrate cortactin (Mus musculus), Q60598 W526K (Q60598 whole entry W526K): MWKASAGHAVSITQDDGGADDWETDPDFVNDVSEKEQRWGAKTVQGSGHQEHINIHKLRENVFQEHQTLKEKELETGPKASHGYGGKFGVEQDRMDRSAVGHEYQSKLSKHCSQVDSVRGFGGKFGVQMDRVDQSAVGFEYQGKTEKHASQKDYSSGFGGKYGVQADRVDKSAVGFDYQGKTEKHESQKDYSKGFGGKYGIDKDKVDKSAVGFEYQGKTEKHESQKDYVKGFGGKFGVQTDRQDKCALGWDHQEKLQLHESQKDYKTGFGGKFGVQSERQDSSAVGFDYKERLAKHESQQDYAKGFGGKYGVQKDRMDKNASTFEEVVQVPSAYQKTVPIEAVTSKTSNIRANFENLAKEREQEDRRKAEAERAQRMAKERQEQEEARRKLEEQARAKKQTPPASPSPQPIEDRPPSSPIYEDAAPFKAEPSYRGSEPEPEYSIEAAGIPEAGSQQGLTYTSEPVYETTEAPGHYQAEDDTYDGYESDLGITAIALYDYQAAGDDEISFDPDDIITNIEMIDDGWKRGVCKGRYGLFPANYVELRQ

## Src substrate cortactin (Mus musculus), Q60598 W526K
  effect of a mutation on the interaction: disrupting interaction
